The term stoichiometry N denotes a count of units in the complex or per binding partner. As a reminder, the Kd is the concentration at which binding is half-saturated. High values mean weaker binding, low ones tighter binding.

The target in data set [1] is PmrA (double-substitution W181G/I220D variant), BeF3^−-activated (Klebsiella pneumoniae). Put plainly: crystal structure; BeF3^−-activated PmrA dimer mixed 1:1 with 25-bp or 26-bp pbgP promoter DNA in 20 mM Tris-HCl pH 8.0, 100 mM NaCl, 2.65 mM BeF3^−; three copies of the complex (complex-1, -2, -3) in two crystal forms.
The target in data set [2] is T1, PmrA (double-substitution variant) (Klebsiella pneumoniae, UniProt W9BNR5 1-223, W181G;I220D).
T1 sequence: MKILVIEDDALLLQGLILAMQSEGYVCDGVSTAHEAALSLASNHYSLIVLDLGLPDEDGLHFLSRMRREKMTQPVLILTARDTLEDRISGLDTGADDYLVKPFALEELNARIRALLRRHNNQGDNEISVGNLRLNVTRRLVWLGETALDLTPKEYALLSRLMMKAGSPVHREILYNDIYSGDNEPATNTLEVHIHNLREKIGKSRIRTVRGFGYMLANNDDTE
Put plainly: X-ray crystallography (3.8 A); BeF3-, Mg2+; FP: 10 mM sodium phosphate, 15 mM NaCl, pH 7.0, 298 K, 6 nM FAM-DNA; proteins activated with 5.3 mM BeCl2, 35 mM NaF, 7 mM MgCl2. NMR: 20 mM Tris-HCl, 100 mM Na.

Data set [3] concerns the target T2, PmrA R210A (Klebsiella pneumoniae, UniProt W9BNR5 1-223, R210A).
T2 sequence: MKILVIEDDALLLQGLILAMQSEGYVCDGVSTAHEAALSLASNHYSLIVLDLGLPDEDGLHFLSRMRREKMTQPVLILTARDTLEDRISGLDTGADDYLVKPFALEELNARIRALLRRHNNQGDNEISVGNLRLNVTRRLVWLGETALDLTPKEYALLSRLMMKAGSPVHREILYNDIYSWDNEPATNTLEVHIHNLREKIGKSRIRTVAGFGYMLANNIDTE
Put plainly: fluorescence polarization; BeF3-, Mg2+ (activation); FP: 10 mM sodium phosphate, 15 mM NaCl, pH 7.0, 298 K, 6 nM FAM-DNA; proteins activated with 5.3 mM BeCl2, 35 mM NaF, 7 mM MgCl2. NMR: 20 mM Tris-HCl, 100 mM Na. (In general: Fluorescence polarisation rises when a labelled molecule tumbles more slowly, as on binding a larger partner.)

The target in data set [4] is T3, PmrA N188A (Klebsiella pneumoniae, UniProt W9BNR5 1-223, N188A).
T3 sequence: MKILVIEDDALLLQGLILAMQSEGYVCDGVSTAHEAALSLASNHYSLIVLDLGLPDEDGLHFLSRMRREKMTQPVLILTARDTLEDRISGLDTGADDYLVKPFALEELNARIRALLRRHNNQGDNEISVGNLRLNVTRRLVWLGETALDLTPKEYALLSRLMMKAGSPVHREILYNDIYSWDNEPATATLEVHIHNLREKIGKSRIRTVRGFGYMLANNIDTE
The description is as above.

In data set [5] the target is T4, WT-PmrA (Klebsiella pneumoniae, UniProt W9BNR5 1-223).
T4 sequence: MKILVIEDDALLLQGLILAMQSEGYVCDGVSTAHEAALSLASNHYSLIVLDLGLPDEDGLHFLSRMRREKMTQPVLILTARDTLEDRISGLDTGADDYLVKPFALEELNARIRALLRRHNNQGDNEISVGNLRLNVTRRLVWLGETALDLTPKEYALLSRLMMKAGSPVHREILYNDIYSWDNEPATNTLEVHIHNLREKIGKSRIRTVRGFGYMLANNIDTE
The description is as above.

Data set [6] concerns the target T1, PmrA (double-substitution variant). Described as above.
The target in data set [7] is T5, PmrA N196A (Klebsiella pneumoniae, UniProt W9BNR5 1-223, N196A).
T5 sequence: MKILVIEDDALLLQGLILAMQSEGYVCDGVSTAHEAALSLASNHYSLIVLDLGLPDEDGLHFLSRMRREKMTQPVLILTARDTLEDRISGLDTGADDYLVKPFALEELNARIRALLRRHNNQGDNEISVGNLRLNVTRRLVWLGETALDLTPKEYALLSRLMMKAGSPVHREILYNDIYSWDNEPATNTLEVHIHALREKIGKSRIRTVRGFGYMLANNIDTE
The data set is described as above.

The target of data set [8] is T6, PmrA N176A (Klebsiella pneumoniae, UniProt W9BNR5 1-223, N176A).
T6 sequence: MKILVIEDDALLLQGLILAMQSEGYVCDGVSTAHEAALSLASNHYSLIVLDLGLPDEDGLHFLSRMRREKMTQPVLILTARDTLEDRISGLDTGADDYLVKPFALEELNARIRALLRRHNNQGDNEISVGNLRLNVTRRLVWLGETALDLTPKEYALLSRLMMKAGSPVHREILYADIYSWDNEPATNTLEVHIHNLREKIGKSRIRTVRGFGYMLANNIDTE
The data set is described as above.

On to “PmrA (double-substitution W181G/I220D variant), BeF3^−-activated (natural protein)”, for which the stoichiometry N in data set [1] is 2.

B1: 26-bp pmra box DNA (crystal) (dsDNA)
DNA 1: ATTTCTTAATATTATCCTAAGCAAGG
DNA 2: CTTGCTTAGGATAATATTAAGAAATC
Regarding B1, the binding result in data set [2] is recorded as “binds”.

B2: 25-bp FAM-labelled DNA (FP) (dsDNA)
DNA 1: ATTTCTTAATATTATCCTAAGCAAG
DNA 2: TTGCTTAGGATAATATTAAGAAATC
For B2, the Kd is 3037 ± 11.7 nM in data set [3]; 762 ± 12.3 nM in data set [4]; 194 ± 7.7 nM in data set [5]; 201 ± 8.2 nM in data set [6]; 399 ± 10.9 nM in data set [7]; 365 ± 11.6 nM in data set [8].

Values taken from publication PMC4660055.
